Values quoted from earlier work as cited in publication PMC10130511.
Like-named read-outs stand apart in the source and are kept apart here. Each block holds one substance with its values, some of them ahead of it.

Assays:
IP3R [1] = molecular target: IP3R (UniProt P29994)
IP3R [2] = molecular target: IP3R (UniProt P29994); remark: listed apart in the source
IP3R [3] = molecular target: IP3R (UniProt P29994); remark: listed apart in the source

Chain of UniProt P29994 (P29994 whole entry): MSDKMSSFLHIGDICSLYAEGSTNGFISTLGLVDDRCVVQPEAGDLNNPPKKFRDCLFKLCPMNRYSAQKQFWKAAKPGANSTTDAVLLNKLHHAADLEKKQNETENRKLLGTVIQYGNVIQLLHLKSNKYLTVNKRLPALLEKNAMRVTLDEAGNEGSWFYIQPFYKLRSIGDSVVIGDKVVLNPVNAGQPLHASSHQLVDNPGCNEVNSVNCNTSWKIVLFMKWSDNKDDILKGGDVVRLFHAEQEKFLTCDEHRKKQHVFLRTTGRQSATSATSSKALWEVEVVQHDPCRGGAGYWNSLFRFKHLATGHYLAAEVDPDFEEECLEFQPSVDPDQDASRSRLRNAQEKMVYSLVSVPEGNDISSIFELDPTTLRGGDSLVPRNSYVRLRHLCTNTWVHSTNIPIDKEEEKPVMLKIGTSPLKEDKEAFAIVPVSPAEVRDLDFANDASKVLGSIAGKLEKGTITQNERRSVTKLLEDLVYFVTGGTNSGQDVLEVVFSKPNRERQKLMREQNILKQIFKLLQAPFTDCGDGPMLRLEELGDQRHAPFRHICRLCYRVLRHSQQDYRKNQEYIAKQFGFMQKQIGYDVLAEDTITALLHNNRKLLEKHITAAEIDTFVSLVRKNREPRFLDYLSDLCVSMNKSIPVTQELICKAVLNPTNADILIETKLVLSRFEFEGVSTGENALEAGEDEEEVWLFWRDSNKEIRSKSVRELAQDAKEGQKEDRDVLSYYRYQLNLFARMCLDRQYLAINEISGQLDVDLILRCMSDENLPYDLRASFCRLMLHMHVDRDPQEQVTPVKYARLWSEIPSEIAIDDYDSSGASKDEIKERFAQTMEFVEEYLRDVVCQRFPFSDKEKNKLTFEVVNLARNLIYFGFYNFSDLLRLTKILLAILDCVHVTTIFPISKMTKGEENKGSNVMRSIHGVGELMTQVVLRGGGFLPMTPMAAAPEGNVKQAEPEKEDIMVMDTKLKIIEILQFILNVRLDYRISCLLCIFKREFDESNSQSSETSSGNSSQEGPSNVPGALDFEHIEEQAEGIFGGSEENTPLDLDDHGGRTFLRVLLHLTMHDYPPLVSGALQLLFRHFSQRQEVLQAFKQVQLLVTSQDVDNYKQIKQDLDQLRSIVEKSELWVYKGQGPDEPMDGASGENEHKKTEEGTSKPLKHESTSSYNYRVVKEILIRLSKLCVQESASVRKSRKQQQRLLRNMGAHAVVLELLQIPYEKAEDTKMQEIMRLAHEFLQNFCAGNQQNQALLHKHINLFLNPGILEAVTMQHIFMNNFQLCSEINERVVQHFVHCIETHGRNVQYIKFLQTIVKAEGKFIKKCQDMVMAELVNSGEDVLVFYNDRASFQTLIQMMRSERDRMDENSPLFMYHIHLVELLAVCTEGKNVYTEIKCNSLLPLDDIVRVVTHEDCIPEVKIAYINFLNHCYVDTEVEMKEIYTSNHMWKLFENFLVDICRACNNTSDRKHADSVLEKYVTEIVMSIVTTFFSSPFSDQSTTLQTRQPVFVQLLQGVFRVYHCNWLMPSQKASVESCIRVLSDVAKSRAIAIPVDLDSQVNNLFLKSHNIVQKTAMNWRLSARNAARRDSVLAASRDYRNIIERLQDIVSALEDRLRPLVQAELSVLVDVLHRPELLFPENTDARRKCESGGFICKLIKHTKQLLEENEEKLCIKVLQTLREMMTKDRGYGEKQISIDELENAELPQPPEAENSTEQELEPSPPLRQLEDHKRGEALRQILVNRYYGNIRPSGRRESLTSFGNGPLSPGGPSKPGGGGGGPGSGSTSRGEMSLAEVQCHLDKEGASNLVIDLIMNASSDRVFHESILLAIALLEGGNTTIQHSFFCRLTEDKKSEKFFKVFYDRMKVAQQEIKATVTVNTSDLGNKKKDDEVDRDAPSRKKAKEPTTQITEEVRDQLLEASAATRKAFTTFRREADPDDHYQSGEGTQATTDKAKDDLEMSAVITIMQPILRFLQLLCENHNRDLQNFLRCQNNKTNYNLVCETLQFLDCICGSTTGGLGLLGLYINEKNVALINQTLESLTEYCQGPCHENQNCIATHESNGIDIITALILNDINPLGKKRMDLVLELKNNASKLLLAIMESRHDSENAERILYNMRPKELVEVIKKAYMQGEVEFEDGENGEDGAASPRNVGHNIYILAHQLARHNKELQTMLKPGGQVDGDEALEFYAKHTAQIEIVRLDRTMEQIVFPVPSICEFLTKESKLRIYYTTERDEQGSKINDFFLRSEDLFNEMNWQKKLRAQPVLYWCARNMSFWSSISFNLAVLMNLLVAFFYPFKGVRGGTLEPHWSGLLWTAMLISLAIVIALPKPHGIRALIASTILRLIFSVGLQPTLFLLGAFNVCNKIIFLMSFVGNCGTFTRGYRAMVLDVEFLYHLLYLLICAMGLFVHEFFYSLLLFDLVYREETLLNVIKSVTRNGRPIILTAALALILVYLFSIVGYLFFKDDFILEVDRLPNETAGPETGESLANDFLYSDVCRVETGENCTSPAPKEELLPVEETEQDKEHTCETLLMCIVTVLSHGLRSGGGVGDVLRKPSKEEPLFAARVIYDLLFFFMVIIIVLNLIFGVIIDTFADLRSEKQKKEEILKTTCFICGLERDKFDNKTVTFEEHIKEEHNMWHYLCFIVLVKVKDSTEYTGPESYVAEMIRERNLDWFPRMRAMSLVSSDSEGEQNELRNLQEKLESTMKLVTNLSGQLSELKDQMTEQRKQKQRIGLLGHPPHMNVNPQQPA

Kd (IP3R [1]): 1000 nM
Substance: Bcl-2 (from UniProt P10415)

Kd (IP3R [2]): 700 nM
Substance: Bcl-xL (from UniProt Q07817)

Kd (IP3R [3]): 65 nM
Substance: Bok (from UniProt Q9UMX3)
